Assay results: patent publication US20240392271

Tested on: dXR (PTBP1 experiment; KRAB not stated in the excerpt) (synthetic construct)
Experiment: cell_activity
Details: mouse astrocytes, day 11

Sequence	activity (PTBP1/total protein relative to NT)	activity (PTBP1/total protein relative to NT) (no clear repression)
ACAGCAUCGUCCCAGACAUA / ACAGCATCGTCCCAGACATA / TATGTCTGGGACGATGCTGT [gRNA spacer 28.16 ; PTBP1 target 28.16]	0.464	–
CAGCGGGGAUCCGACGAGCU / CAGCGGGGATCCGACGAGCT / AGCTCGTCGGATCCCCGCTG [gRNA spacer 28.10 ; PTBP1 target 28.10]	–	0.945
